The text below walks through data of article PMC7838286.

What is called stoichiometry N is the number of molecules, sites or subunits per partner or assembly.

Assay [1] has as its target Cp150 homodimer (Cp149 variant with a C-terminal cysteine) (Hepatitis B Virus). Nature of the assay: SEC; 2 uM Cp150Bo with 4 uM holey capsid, 300 mM NaCl, 23 °C, 24 h; 2 uM Cp150Bo alone with 300 mM NaCl as control; Superose 6 with absorbance at 280 and 504 nm and fluorescence at 512 nm. A general note: Size exclusion chromatography separates by hydrodynamic size, large species first.

The target is the same in assay [2]. The experiment in a line: cryo-EM structure; capsids left after treatment of co-assembled capsids with 3 M urea and 100 uM EDTA; C1 symmetry throughout; complete capsid 6.2 Å, holey capsids 10.8 Å and 12.9 Å.

“Cp150Bo homodimer (BODIPY-FL-labeled Cp150) (domain or fragment)” returned a Cp150Bo dimers added per holey capsid (dimers per holey capsid) in assay [1] of 16.
“Cp150 homodimer (Cp149 variant with a C-terminal cysteine) (domain or fragment)” registered a stoichiometry N in assay [2] of 120 dimers.
